Measured values from publication PMC10315481.

Target: globupain, wild-type zymogen (proenzyme) (unclassified Archaeoglobus species (metagenome))
Experiment: SEC + AUC; SEC: Superdex 75 10/300 GL, 50 mM potassium phosphate pH 7.0, 150 mM NaCl, 500 uL of globupain at 1 mg/mL, calibrated with proteins of known molecular weight; AUC (p-0016): sedimentation velocity, 20°C, 50,000 rpm, 50 mM potassium phosphate pH 7.0, 150 mM NaCl, 1 mM EDTA, c(s) distribution in …

stoichiometry N: 2
Substance: globupain, wild-type zymogen (proenzyme)
